Test: yeast display, Sf9 membrane polyspecificity reagent, FACS + sequencing; frameworks hold sequencing errors
Procedure, shortened: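 Genes from sorted yeast were amplified by colony PCR, read by MiSeq 2 × 250 sequencing and filtered on CDR length. These cells carried a synthetic nanobody library in Saccharomyces cerevisiae BJ5465 and were sorted by FACS into low and high (top ~1%) gates on anti-HA and streptavidin fluorescence. Polyreactivity is labelled according to the gate of origin.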

| Sequence | polyreactivity (PSR sort gate) |
| --- | --- |
| QVQLVESGGGLVQAGGSLRLSCAASGFTFYRYAMGWYRQAPGKERELVAVITGRGGTTYYADSVKGRFTISRDNAKNTVYLQMNSMKPEDTAVYYCAVQTHRSLDPYDYWGQGTQVTVSS | high polyreactivity |
| QVQLVESGGGLVQAGASLRLSCAASGSTFYIYAMGWYRQAPGKERELVAGISSGSTYYADSVKGRFTISRDNAKNTVYLQMNSLKPEVTAVYYCAVDSYYFLKDPISYGLYYYWGQGTQVTVSS | low polyreactivity |
| QVQLVESGGGLVQAGGSLRLSCAASGNNLLGYAMGWYRQAPGKEREWVAAISSSGGRTYYADSVKGRFTISRDNAKNTVYLQMNSLKPEDTAVYYCAAYTYSAGGYWGQGTQVTVSS | high polyreactivity |
| QVQLVESGGGLVQAGGSLRLSCAASGSTFAWYAMGWYRQATGKETELVAVITRRGGSTYYADSVKGRFTISRDNAKNTVYLQMNSLKPEDTAVYYCAAEYQVSHWYRTASVYDYDSWGQGTQVTVSS | high polyreactivity |
| QVQLVESGGGLVQAGGSRRLSCAASGSIFTGYAMGWYRQSPGKERELVAAINSNGGRTYYADSVKGRFTISRDNAKNTVYLQMNSLKPEDTAVYYCAADSGRGYRYKTFNWGRFYWGQGTQVTVSS | high polyreactivity |
| QVQLVESGGGLVQAGGSLRLSCAASGSTLNSYVMGWYRQAPGKERELVATIRSGSSTNYADSVKGRFTISRDNAKNTVYLQMNSLKPEDTAVYYCAGDAYSLCYDSWGQGTQVTVSS | low polyreactivity |
| QVQLVESGGGLVQAGGSLRLSCAASGLIFVWYAMGWYRQAPGKEREVVAAITSRGGSTYYADSVKGRFTISRDNAKNTVYLQMNSLKPEDTAVYYCAKYVRYDLGDYWGQGTQVTVSS | low polyreactivity |
| QVQLVESGGGLVQAGGSLRLSCAASGFTFVPYAMGWYRPAPGKEREFVAAITSSGTTNYADSVKGRFTISRDNAKNTVYLQMNSLKPEDTAVYYCAADPDSGQVPFDYWGQGTQVTVSS | low polyreactivity |
| HVQLVESGGGLVQAGGSLRLSCAASGLIFKRYAIGGYRKAPGKERELVAAISYSGGSTYYEDSVKGRFTISRDYAKNTVYLQMNSLKPEDTAVYYCNAQSYRSDSAYHYKYDYWGQGTQVTVSS | high polyreactivity |
| QVQLVESGGGLVQAGGSLRLSCAASGFTFHKYAMGWYRQAPGKERELVAAISWSGDRTYYADSVKGRFTISRDNAKNTVYLQMNSLKPEDTAVYYCAAATRYSFYIKYDYWGQGTQVTVSS | high polyreactivity |
| QVQLVESGGGLVQAGGSLRLSCAASGSTFKQYTMGWYRQAPGKERELVAAISWSGTSTYYADSVKGRFTISRDNAKNTVYLLMNSLKAEDTAVYYCAAVSYVWQYYYWGQGTQVTVSS | high polyreactivity |
| QVQLVESGGGLVQAGGSLRLSCAASGIIFIVNAMGWYRQAPGKERELVATISSSGDITRYADSVKGRFTISRDNAKYTVYLQMNSLKPEDTAVYYCAARLWTGYWGTAHPRYDYWGQGTQVTVSS | high polyreactivity |
| QVQLVESGGGLVQAGGSLSLSCAASGIIFIYYGMGWYRQAPGKERELVAAISRSGGRTYYADSVKGRFTISRDNAKNTVYLQMNSLKPEDTAVYYCATTYTPTGFDYWGQGTQVTVSS | high polyreactivity |
| QVQLVESGGGLVQAGGSLRLSCAASGSTLQVNAMGWYRQAPGNERELVATISFSGGSTYYADSVKGRFTISRDNAKYTVYLQMNSLKPEDTAVYYCNADSFVSWYNQFWYQATYDYWGQGTEVTVSS | low polyreactivity |
| QVQLVESGGGLVQAGCSLRLSCAASGRIFLVNAMGWYRQAPGKERELVAAISYRSGRTYYADSVKGRFTISRDNAKNTVYLQMNSLKPEDTAVYYCAAYTNVADMEYWGQGTQVTVSS | high polyreactivity |
| QVQLVESGGGLVQAGGSLRLSCAASGFTFTGYAMGWYRQAPGKERELVAAISSSGGSTYYADSVKGRFTISRDNAKNTVYLQMNSLKPEDTAVYYCNARISDAHYQCNYFLVLYDYWGQGTQVTVSS | low polyreactivity |
| QVQLVESGGGLVQAGRSLRLSCAASRSIFARYAMAWYRQAPGKERELVAAINSTVSTNYADSVKGRFTISRENAKNTVYLQMNSLKPEDTAVSYCAVDMVRGGLDSWGQGTQVTVSS | low polyreactivity |
| QVQLVESGGGLVQAGGSLRLSCAASGFILYGNAMGWYRQAPGKERELVAAISRRGGSTYYADSVKGRFTISRDNAKNTVYLQMNSLKPEDTALYYCAKDGPGGGTRIYDYWGQGTQVTVSS | high polyreactivity |
| QVQLQESGGCLVQADGSLRLSCAASGSIFGYYYMGWYRQAPGKDRELVATINICGITNYADSVKGRFTISRDNAKNTVYLQMNSLKPDDTAVYYCAADEYAQRDLGYWGQGTQVTVSS | low polyreactivity |
| QVQLVESGGGLVQAGGSLRLSCAASGSTFVWNAMGWYRQAPGKERELVAAITSSGGSTYYADSVKGRFTISRDNAKNTVYLQMNSLKPEDTAVYYCAATGVNYRGLLGVAWGNNYWGQGTQVTVSS | low polyreactivity |
| QVQLVESGGGLVQAGGSLRLSCAASGRTFYPYVMGWYRQAPGKERELVATISWSGGSTYYADSVKGRFTISRDNAKNTVYLQMNSLKPEDTAVYYCAALWPYGYWGQGTQVTVSS | low polyreactivity |

| Sequence | polyreactivity (PSR sort gate) |
| --- | --- |
| QVQLVESGGGLVQAGGRLRLSCAASGITFRSYAMGWYRQAPGKESELVAAIRSGGSTSYADSVKGRFTISRDNAKNTVYLQMNSLKPEDTAVYYCAAGGYVPLPDMTFWKFGYWGQGTQVTVSS | low polyreactivity |
| QVQLVESCGGLVQAGGSLRLSCAASGRTFRSYTMGWYRQAPGKERELVASIRTSSGCTYYADSVKGRFTISRDNAKNSVYLKMNSLKPEDTAVYYCAKTLLYPWFRTVAVDYWGQGTQVTVSS | low polyreactivity |
| QVQLVESGGGLVQAGGSLRLSCAASGFIFGYNVKGWYRQAPGKERELVAAISSRGSSTYYADSVKGRFSISRDNAKNTVYIQMNSLKPEDTAVYYCAAYSSYNSWVSRRYGHDYWGQGTQVTVSS | high polyreactivity |
| QVQLVESGGRLVQAGGSLRLSCAASGRIFTQYAMGWYRQSPGKERELVAAINASDGSTYADSVKGRFTSSRDNAQNTVYLQMKRLKPADTAVYYCNVTGGTYDFTRWSEFDHWGQGTQVTVSS | low polyreactivity |
| QVQLVESGGGLVQAGGSLRLSCAACGFTFTAYAMVWYRQAPGKERELVAAISYRGGRTNYAYSVKGRFTISRDNAKNTVYLQMNSLKPEDTAVYYCAARPRISTREMDYWRQGTQVTVSS | high polyreactivity |
| QVQLVESGGGLVQAGGSLRLSCAASGTIFNRYAMGWYRQAPGKERELVAAITRGGTTYYADSVKGRFTISRDNATNTVYLQMNSLKPEDTAVYYCAARLRYTTVIYYYWGQGTQVTVSS | high polyreactivity |
| QVQLVESGGGLVQAGGSLRLSCAASGSTFNYYAMGWNRQAPVKERELVATISWSGDSTYADSVKGRFTISRDNAKNTVYLQMHSLKPEDTAVYYCATSGDWWCFRYDYWGQGTQVTVSS | low polyreactivity |
| QVQLVESGGGLVQAGGSLRLSCAASGRTFYRYAMGWYRQAPGKERELVAAISTSGSTTYADSVKGRFTISRDNAKNTVYLQMISLKPEDTAVYYCNAVYYYRPDWRQSNLSQYGYWGQGTQVTVSS | high polyreactivity |
| QVQLVESVGGLVQAGGSHRLSCAASGSIFGYYTMGWYRQAPGKERELVAAITYSGGSTYYADSVKGRFTISRDNAKNTVYLQMNSLKPEDTAVYYCNAKSAAHRYVRRHDYWGLGTQVTVSS | low polyreactivity |
| QFHLVETGGGLVQAGGSLRLSCAASGSTFSDYAMGSYRQAPGKERELVAGITETGTTTYYADSVNGRFTISRDNAKNTDYLQINSLKPEDTAVYYCAAFLVTYYYGTGYYSYDYWGQGTQVTVSS | low polyreactivity |
| QVQLVESGGGLVQAGGSLRLSCAASGAILRRYAMGWYRQAPGKERELVAAISYSGGNTYYADSVKGRFTISRDNAKNTVYLQMNSLKPEDTAVYYCAARYYGTYRGFYYWGQGTQVTVSS | high polyreactivity |
| QVQLVESGGGLVQAGGSLSLSCADSAGTFKTNAKGWYRQAPGKERELVAAITGSGTSTYYADSVKGRFTSSRDNAKNTVYFQMNSLKPEDTAVYYCAADKLYQPGIGDDYWGQGTQVTLSS | low polyreactivity |
| QVQLVESGGGLVQAGGILRVSCAASGSTFRRYAMGWSRQAPGKERELVAAIRQRGTSTYYADSVKGRFTISRDNAKNTVYLQMNSLKPEDTAVYYCAAGPSLWLFNSWGQGTQVTVSS | high polyreactivity |
| QVQLVESGGGLVQAGGSLRLSCAASGGIFTSYDMGWYRQAPAKEREFVAGISDSGGSTYYADSVKGRFTISRDNAKNTVYLQMNSLKPEDTAVYYFAADAWYVWEYWWQTEDDYWGQGTEVTVSS | high polyreactivity |
| QVQHVESGGGLVQAGGSLRLSCAASGIIFTTYAMGWYRQAPGKERELVAAISRSGSTYYADSVKGRFTISRDNAKNTVYLQMNSLKPEDTAVYYCASGRWRWRGYDYYWGQGSQVTVSS | high polyreactivity |
| QVQLVESGGGLVQAGGSLRLSCAASGRTFYDNTMGWYRQAPWKERELVAAISRGGSTYADSVKGRFTISRDNAKNTVYLQMNSLKPEDTAVYYCNKRSITTEYGYWGQGTQVTVSS | low polyreactivity |
| QVQLVESGGGLVQAGGSLRLSCAASGFTLYRNAMGWYRQAPGKERELVAAITSSGGGTYYADSVKGRFTISRDNAKNTVYLQMNSLKPEDTAVYYCAARSTSDREGNYWGQGTQVTVSS | low polyreactivity |
| QVQLVESGGGLVQAGGSLRLSCAASGYIFSGYAMGWYRQAPGKEMELVAAISSNGGSTYYADSVKGRFTISRDNAKNTVYLQMNSLKPEDTAVYYCNRGLAARVGRGDYWGQGTQVTVSS | low polyreactivity |
| QVQLVESGGGLVQAGGSLRLSCAASGSTFYSNVMGWYRQAPGKERELVAAISQSGGRTFYADSVKGRFTISRDNAKNTVYLQMNSLKPEDTAVYYCNNVRAQPRNPYDYWGQGTQVTVSS | high polyreactivity |
| QVQLVESGGGLVQAGGSLRLSCAASGRLFSRNVMGWSRQAPGKERELVAAISSSGSTYADSVKGRFTISRDNEKNTVYLQMNSLKPEDTAVSYCAAVIYLWGQGTQVTVSS | high polyreactivity |
